Results published in patent US20130330334A1 (FRAUNHOFER GESELLSCHAFT ZUR F RDERUNG DER ANGEWANDTEN …, published 2013).
Where a chain is given by its changes, count along the chain named.

B1: chimeric anti human CD4-antibody (chimeric IgG4) (antibody, V domains shown)
VH: EVQLQQSGTVLARPGASVQMSCKASGYSFANYWMHWVKQRPGQGLQWIGALYPGNVDTTYNQKFKDKAKLTAVTSASTAYMELSSLTNEDSAVYYCTRMGTTLEAPLDYWGQGTTLTVSS
VL: QIVLTQSPAIMSASPGEKVAMTCSARSSVSYLYWYQQKPGSSPRLLIYDTSNLASGVPVRFIGSGSGTSYSLTISRMEAEDAATYYCQQWSDYPLTFGAGTKLELK
notes: Mouse VH and VL were cloned into pANTVhG4 (human genomic IgG4 constant region) and pANTVk (human kappa constant region) and expressed in NS0 cells; also called chimeric anti-CD4 antibody; chimeric antibody
B2: monoclonal mouse anti human CD4-antibody 30F16H5 (antibody, mouse IgG1, V domains shown)
VH: B1 VH
VL: B1 VL
notes: also called Max16H5; Max.16H5
B3: modified anti-CD4 antibody VH3/VK4 (antibody, V domains shown)
VH: B1 VH with T9S, V10E, A12K, Q19K, S28T, R40A, S91T, T115L, L116V
VL: B1 VL with M11L, V19A, V59S, S69D, R76S, L105I
B4: modified anti-CD4 antibody VH2/VK1 (antibody, V domains shown)
VH: EVQLQQSGSELKRPGASVKVSCKASGYTFANYWMHWVKQAPGQGLQWIGALYPGNVDTTYNQKFKDKAKLTADTSASTAYMELSSLTNEDTAVYYCTRMGTTLEAPLDYWGQGTLVTVSS
VL: B1 VL with I10T, M11L, V19A, L45A, V59S, I62S, S69D, R76S, L105I
B5: modified anti-CD4 antibody VH4/VK2 (antibody, V domains shown)
VH: B4 VH with S9T, V20M, D73V, T91S, L115T
VL: B1 VL with I10T, M11L, V19A, V59S, I62S, S69D, R76S, L105I
B6: modified anti-CD4 antibody VH4/VK4 (antibody, V domains shown)
VH: B4 VH with S9T, V20M, D73V, T91S, L115T
VL: B1 VL with M11L, V19A, V59S, S69D, R76S, L105I
B7: modified anti-CD4 antibody VH2/VK4 (antibody, V domains shown)
VH: B4 VH
VL: B1 VL with M11L, V19A, V59S, S69D, R76S, L105I
B8: modified anti-CD4 antibody VH1/VK4 (antibody, V domains shown)
VH: B4 VH with K38R, L70I, A72R
VL: B1 VL with M11L, V19A, V59S, S69D, R76S, L105I
B9: modified anti-CD4 antibody VH2/VK2 (antibody, V domains shown)
VH: B4 VH
VL: B1 VL with I10T, M11L, V19A, V59S, I62S, S69D, R76S, L105I
B10: modified anti-CD4 antibody VH3/VK2 (antibody, V domains shown)
VH: B4 VH with V20M, D73V
VL: B1 VL with I10T, M11L, V19A, V59S, I62S, S69D, R76S, L105I
B11: modified anti-CD4 antibody VH1/VK1 (antibody, V domains shown)
VH: B4 VH with K38R, L70I, A72R
VL: B1 VL with I10T, M11L, V19A, L45A, V59S, I62S, S69D, R76S, L105I
notes: VK1=20, VK2=18, VK3=16, VK4=14
B12: modified anti-CD4 antibody VH4/VK1 (antibody, V domains shown)
VH: B4 VH with S9T, V20M, D73V, T91S, L115T
VL: B1 VL with I10T, M11L, V19A, L45A, V59S, I62S, S69D, R76S, L105I

molecular target: T1, human CD4 (coated on ELISA plate) (human, UniProt P01730 26-396, limits assumed); test: competition ELISA, plate-coated CD4, competitor biotinylated mouse anti-CD4 at 0.2 µg/ml
Procedure: The chimeric antibody was tested in an ELISA-based competition assay using mouse anti-CD4 antibody, biotinylated using a B-Tag micro biotinylation kit (Sigma, Poole UK). A dilution series of chimeric IgG4 or control mouse antibody from 10 μg/ml to 0.009 μg/ml was premixed with a constant concentration of biotinylated anti-CD4 (0.2 μg/ml) before incubating 100 μl/well for 1 hour at room temperature in a Nunc MaxiSorp 96 well flat bottom microtitre plate (Fisher, Loughborough, UK) pre-coated with 50 μl/well of 1 μg/ml CD4. The binding of the biotinylated mAb was determined by incubating for 1 h at room temperature with 100 μl/well of a 1/500 dilution of streptavidin-HRP (Sigma), followed by detection with 100 μl/well OPD substrate (Sigma). After stopping the reaction with 50 μl/well 3M HCl, absorbance at 490 nm was measured using a Dynex Technologies (Worthing, UK) MRX TC II plate reader.
Therefore the correct variable region sequences have been identified and cloned.

| IC50 [µg/mL] | Binder |
| --- | --- |
| 0.25 | B1 |
| 0.18 | B2 |

molecular target: T1, human CD4 (coated on ELISA plate); test: competition ELISA, plate-coated human CD4, competitor biotinylated mouse antibody at 0.2 µg/ml

| Relative Binding (IC50 of test sample divided by IC50 of mouse antibody) [fold] | Binder |
| --- | --- |
| 1.44 | B3 |
| 8.66 | B4 |
| 0.73 | B5 |
| 0.49 | B6 |
| 1.44 | B7 |
| 5.06 | B8 |
| 0.96 | B9 |
| 1.77 | B10 |
| 0.14 | B11 |
| 3.89 | B12 |
